Drawing on US20220289866A1 (University of California, published 2022), this text covers Kd for 5 molecules.

Changes are numbered by the printed parent chain. Non-standard residues stand in square brackets, D forms with d. No end group written: not given here. *: point of attachment. ARS‑1620 (S-atropisomer) = O=C(CC*)N1CCN(c2ncnc3c(F)c(-c4c(O)cccc4F)c(Cl)cc23)CC1; Nle = CCCC[C@H](N)C(=O)O

Assay [1] addresses T1, PolyG-1620 peptide (S-atropisomer) (not fully specified (N-terminus); printed as GGC(1620)GGGGGG-Nle).
T1 construct: Control peptide, not of natural origin
T1 peptide: GGC(ARS‑1620 (S-atropisomer))GGGGGG[Nle]
The experiment in a line: BLI, biotinylated peptide. (In general: BLI is a label-free optical method that tracks binding on a fibre tip over time.)

In assay [2] the target is T1, PolyG-1620 peptide (S-atropisomer). Description: BLI; 'Affinity (nM)'.
In another assay the target is T2, AHR2-1620 peptide.
T2 construct: Origin printed as 'off target'
T2 peptide: VVVEPQQQLC(ARS‑1620 (S-atropisomer))QK
The experiment in a line: BLI; 'Affinity (nM)'.

B1: P2F10 Fab (Fab, V domains shown)
VH: EVQLVESGGGVVQPGRSLRLSCAASGFTFSNYAMHWVRQAPGKGLEWVALISYDGSITYYADSVKGRFTISRDNSKDTLYLQMNSLRPEDTTLYYCARERVPYDYYGMAVWGQGTTVTVSS
VL: QSVLTQPPSVSAAPGQKVTISCSGSASNIGSNHVSWYQHVPGTAPQLLIYDDKQRPSGIPDRFSGSKSGTSAALAITGLQTGDEADYYCATWDNSLASAFFGGGTKLTVLS
notes: Fab from a human naive Fab-phage library
Consider B1, for which, in assay [1], binding was put at a Kd of 14.1 nM.

B2: P2G5 Fab (Fab, V domains shown)
VH: QVQLLESGGGVVQPGRSLRLSCAASGFTFSSYAMHWVRQAPGKGLEWLASISYDGSNKFHADSVKGRFTISRDNSKSTLYLQMNSLRAEDTAVYYCVRERVPWDYDGMDVWGQGTTVTVSS
VL: QSVVTQPPSVSAAPGQKVTVSCSGSNSNIGDNYVSWYQLLPGTAPKLLIYDNNKRPSGILDRFSGSKSGTSATLDITGLQTGDEADYYCGTWDSSLLTVVFGGGTKLTVLG
notes: Fab from a human naive Fab-phage library; also called P1C1; P1C1(P2G5)
Turning to B2, binding in assay [1] was put at a Kd of 85.4 nM.

B3: P2F11 Fab (Fab, V domains shown)
VH: B2 VH with Q1D, L5V, S31N, L48V, S50L
VL: QSVLTQPPSASGTPGQRVTISCSGGNSNIKSNTVSWYRQLPGATPKLLIYKTSQRPSGVPDRFSGSKSDTSATLDIAGLQTGDEADYYCGTWDNSLSSVVFGGGTRVTVLG
notes: as for B1
Turning to B3, the Kd (as a rule, the concentration at which binding is half-saturated) in assay [1] was determined as 21.7 nM. This Kd is about 3.9-fold lower than that of the molecule before.

B4: P1H6 Fab (Fab, V domains shown)
VH: B2 VH with L5V
VL: B2 VL with V4L, N26S, D31N, L97I, T98N, L107V, G111S
notes: as for B1
In assay [1], B4 came in with a Kd of 24.6 nM.

B5: P1A4 Fab (Fab, V domains shown)
VH: QVQLQESGGGLVQPGRSLRLSCAASGFTFSSYAMHWVRQAPGKGLEWVAVISYDGSNKYYADSVKGRFTISRDNSKNTLYLQMNSLRAEDTAVYYCARDYDWQYFDYWGQGTLVTVSS
VL: QSVVTQPPSVSAAPGQEVTISCSGSSSNIGNNYVSWYQHLPGTAPKLLIYDSDKRPSGIPDRFSGSKSGTSATLGVTGLQTGDEADYYCGTWDSSLSAVMFGGGTKLTVLG
Turning to B5, the Kd in assay [2] came out at 40 nM; with AHR2-1620 peptide, 51 nM; in assay [1], 39 nM.
